Reference: US20120058118A1 (Boehringer Ingelheim, published 2012)
Like-named read-outs stand apart in the source and are kept apart here. Each block holds one binder with its values, some of them ahead of it. Ends that are not written are not given here. * marks the point of attachment. Biotin = O=C1N[C@H]2[C@H](CS[C@H]2CCCCC(=O)*)N1

How the values were obtained:
[1] = biological target: T1, His.Xa.Abeta1-28.GS.p38 fusion protein; assay: size exclusion chromatography, Experion quantification (0.87 µM and 0.86 µM)
T1 construct: His-tag, factor Xa site, A-beta(1-28), GS linker, murine p38 alpha; the SEC experiment names it only A-beta(1-28)-p38 fusion protein; also called A-beta(1-28)-p38 fusion protein; A-beta-p38 fusion protein
T1 chain: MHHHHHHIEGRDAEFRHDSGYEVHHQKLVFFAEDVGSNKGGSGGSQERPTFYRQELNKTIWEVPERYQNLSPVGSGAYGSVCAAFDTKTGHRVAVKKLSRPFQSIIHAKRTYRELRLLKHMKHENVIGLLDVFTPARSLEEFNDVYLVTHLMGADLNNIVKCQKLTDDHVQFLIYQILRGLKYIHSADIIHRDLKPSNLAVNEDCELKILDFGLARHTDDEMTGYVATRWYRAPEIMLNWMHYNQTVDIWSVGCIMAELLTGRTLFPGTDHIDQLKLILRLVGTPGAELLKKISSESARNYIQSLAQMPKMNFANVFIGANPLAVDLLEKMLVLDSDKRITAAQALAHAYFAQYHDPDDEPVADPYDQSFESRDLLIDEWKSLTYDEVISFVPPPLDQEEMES
Description: Determination of the binding mode using size exclusion chromatography: Size exclusion chromatography (SEC) separates molecules according to differences in size as they pass through a gel filtration medium packed in a column. The binding mode of biparatopic VHH constructs to their target can be identified by analysing the protein complex after incubating a 1:2 molar ratio of the respective VHH construct and the target protein. Therefore the mixture will be separated by SEC and the contents of the resulting peaks is analyzed by protein gel electrophoresis. […] The gel filtration produced two peaks which are further analyzed by SDS-PAGE using the automated electrophoresis station Experion (Bio-Rad, USA) and the appropriate chip (Pro260 Chip, Bio-Rad, USA).

[2] = biological target: T2, human A-beta(1-40) peptide, monomeric (BAM) (human, biotin at the C-terminus in capture ELISA, SPR and TR-FRET; not biotinylated where coated directly (Example 7)); assay: cell-based or functional assay
[3] = biological target: T2, human A-beta(1-40) peptide, monomeric …; assay: TR-FRET competition; extrapolated curve
[4] = biological target: T2, human A-beta(1-40) peptide, monomeric …; assay: BAM ELISA
[5] = biological target: T3, aggregated A-beta(1-40) peptide (BAA) (human); assay: BAA ELISA
T3 construct: also called A-beta peptide aggregates

[6] = biological target: T3, aggregated A-beta(1-40) peptide (BAA); assay: BAA ELISA; remark: listed apart in the source
[7] = biological target: T2, human A-beta(1-40) peptide, monomeric …; assay: BAM ELISA; remark: listed apart in the source
[8] = biological target: T2, human A-beta(1-40) peptide, monomeric …; assay: TR-FRET competition, labelled ABII60A10; extrapolated curve
[9] = biological target: T2, human A-beta(1-40) peptide, monomeric …; assay: TR-FRET competition
[10] = biological target: T2, human A-beta(1-40) peptide, monomeric …; assay: TR-FRET competition, labelled ABII42D4
[11] = biological target: T2, human A-beta(1-40) peptide, monomeric …; assay: TR-FRET competition, labelled ABII42D4; remark: listed apart in the source
[12] = biological target: T2, human A-beta(1-40) peptide, monomeric …; assay: SPR, captured C-terminally biotinylated A-beta(1-40), 1:1 model
Description: (§1) After capturing, surfaces are blocked by injecting an excess (200 μg/ml) of d-biotin for 180 s at 5 μl/min. A reference surface is washed and blocked with d-biotin. HBS-EP+buffer is used as the running buffer and experiments are performed at 25° C. For off-rate screening, periplasmic extracts of VHHs are injected at a 10-fold dilution for 2 min at 45 μl/min and are allowed to dissociate for 10 min. […] Between different VHH samples, the surfaces are regenerated with regeneration buffer (50 mM NaOH) for 25 s at 45 μl/min followed by 10 s 6M GuHCl at 45 μl/min if regeneration is incomplete. […] Data are double referenced by subtraction of the curves on the reference channel and of a blank running buffer injection. Sensorgrams are evaluated by fitting a 1:1 dissociation model using the Biacore T100 Evaluation software v1.1.1.

[13] = biological target: T2, human A-beta(1-40) peptide, monomeric …; assay: 42D4 TR-FRET assay (labelled ABII42D4)
[14] = biological target: T2, human A-beta(1-40) peptide, monomeric …; assay: SPR (Biacore T100), periplasmic extracts on captured biotinylated A-beta(1-40), 1:1 model
Description: as §1

[15] = biological target: T2, human A-beta(1-40) peptide, monomeric …; assay: TR-FRET competition; remark: listed apart in the source
A-beta(1-16) peptide = biological target: T4, A-beta(1-16) peptide (human); assay: SPR on captured A-beta(1-16)
T4 construct: Bachem peptide captured on streptavidin chip; also called monomeric A-beta(1-16)
T4 peptide: DAEFRHDSGYEVHHQK-biotin
Description: as §1

[16] = biological target: T2, human A-beta(1-40) peptide, monomeric …; assay: 60A10 TR-FRET assay (labelled ABII60A10)
[17] = biological target: T2, human A-beta(1-40) peptide, monomeric …; assay: TR-FRET competition and SPR
[18] = biological target: T2, human A-beta(1-40) peptide, monomeric …; assay: TR-FRET competition, mean IC50; mean IC50 of Table XII
[19] = biological target: T2, human A-beta(1-40) peptide, monomeric …; assay: ELISA, peptide coated at 2 µg/ml, anti-myc detection
[20] = biological target: T5, mouse A-beta(1-40) peptide (mouse); assay: as above
T5 construct: Bachem peptide coated directly; also called rodent A-beta(1-40)
T5 peptide: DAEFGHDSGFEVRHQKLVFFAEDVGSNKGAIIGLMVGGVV

[21] = biological target: T5, mouse A-beta(1-40) peptide; assay: ELISA EC50
[22] = biological target: T2, human A-beta(1-40) peptide, monomeric …; assay: ABII002 TR-FRET competition assay
[23] = biological target: T2, human A-beta(1-40) peptide, monomeric …; assay: TR-FRET competition, labelled ABII60A10
[24] = biological target: T2, human A-beta(1-40) peptide, monomeric …; assay: ABII050 TR-FRET competition assay
[25] = biological target: T6, pGlu-A-beta(1-28), C-terminally biotinylated (human, pyroglutamate formed from the glutamate at position 3 (N-terminus); biotin at the C-terminus); assay: SPR on captured C-terminally biotinylated pGlu-A-beta(1-28), 1:1 model
T6 construct: printed as pGlu-A-beta(1-28), while the text says that the first two N-terminal residues are missing; range 3-28 is my reading; also called pyroglutamyl-Abeta
Excerpt: Association and dissociation curves can be fitted using a 1:1 interaction model and an accurate KD value can be determined.

[26] = biological target: T2, human A-beta(1-40) peptide, monomeric …; assay: TR-FRET competition, labelled ABII60A10; remark: listed apart in the source
A-beta(12-28) peptide = biological target: T7, A-beta(12-28) peptide (human); assay: SPR on captured A-beta(12-28)
T7 construct: Bachem peptide captured on streptavidin chip; also called monomeric A-beta(12-28); central region
T7 peptide: Biotin-VHHQKLVFFAEDVGSNK

[27] = biological target: T2, human A-beta(1-40) peptide, monomeric …; assay: ABII42D4 TR-FRET assay

Aggregation inhibition (% inhibition at 26 µM) [2]: 69%
IC50 [3]: 404 nM
EC50 [4]: 15.8 nM
EC50 [5]: 4.7 nM
EC50 [6]: 4.7 nM
EC50 [7]: 15.8 nM
IC50 [8]: 404 nM
B2: reference VHH 2D2 (VHH)
VHH: AVQLVDSGGGLVQAGGSLRLSCAVSGGTFSSIGMGWFRQAPGKEREFVGAISRSGDSTYYADSVKGRFTISRDGAKNTVYLQMNSLKDEDTAVYYCAGRPAGTAINIRRSYNYWGQGTQVTVSS
notes: from WO2006/40153, made and purified like the other VHHs

fold improvement of IC50 and KD over original ABII42D4 [17]: > 10 fold
IC50 [10]: 2.9 nM
IC50 [18]: 2 nM
EC50 [19]: 1.8 nM
EC50 [20]: 3.3 nM
fold difference mouse against human A-beta [21]: 1.8 fold
IC50 [22]: 2.9 nM
B4: ABII111B5_M107R = ABII002 (VHH)
VHH: EVQLVESGGGLVLAGGSLRLSCVHSGPTFRTDTMGWFRQAPGKEREFVAAVTWNSGRINYADSVKGRFTVSRDNTRNAAYLQMSGLKDEDTAVYYCTAHRFVVGGNRVEDWRYWGQGTQVTVSS
notes: myc-tagged in ELISA

IC50 [23]: 0.5 nM
IC50 [24]: 0.53 nM
Kd [25]: 0.224 nM
B5: monoclonal antibody m266 (IgG) (antibody, V domains shown)
VH: EVKLVESGGGLVQPGGSLKLSCAVSGFTFSRYSMSWVRQTPEKRLELVAQINSVGNSTYYPDTVKGRFTISRDNAEYTLSLQMSGLRSDDTATYYCASGDYWGQGTTLTVSS
VL: DVVMTQTPLSLPVSLGDQASISCRSSQSLIYSDGNAYLHWFLQKPGQSPKLLIYKVSNRFSGVPDRFSGSGSGTDFTLKISRVETEDLGVYFCSQSTHVPWTFGGGTKLEIK
notes: also called IgG m266; IgG266

IC50 [26]: 34.4 nM
binding result (A-beta(12-28) peptide): binds
koff [14]: 0.027 s⁻¹
EC50 [6]: 6 nM
EC50 [7]: 187 nM
B6: ABII60G11 (VHH)
VHH: EVQLVESGGGSEQAGGSLRLSCATSGRAFSVYAWFRQAPGKERTFVAAVAWVGGSTFYSDSVKGRFTISRDNAKNTVFLHMNSLKPEDTAAYYCAARLYGGRWYNSPRVDDFEYWGQGTQVTVSS

The remaining lines, values behind:

B1: 60A10-27GS-42D4-Alb (designed binder)
chain: EVQLVESGGGLVQAGGSLRLSCAASGRTFNNYNMGWFRQAPGKEREFVAAVSRSGVSTYYADSVKGRFTISRDNAKNAVYLQMNSLKPEDTAIYYCGAAYRGTAINVRRSYDSWGQGTQVTVSSGGGSGGGGSGGGGSGGGGSGGGGSGGGEVQLVESGGGLVLAGGSLRLSCVHSGPTFSTDTMGWFRQAPGKEREFVAAVTWNSGRTNYADSVKGRFTVSRDNTRNAAYLQMSGLKDEDTAVYYCTAHRLVVGGTSVGDWRYWGQGTQVTVSS
notes: calculated molecular weight 95 kDa; also called biparatopic VHH fused to human serum albumin; not shown: human serum albumin, fused C-terminally
ratio of A-beta(1-28)-p38 to 60A10-27GS-42D4-Alb in the complex [1]: ~1

B3: ABII42D4 (VHH)
VHH: EVQLVESGGGLVLAGGSLRLSCVHSGPTFSTDTMGWFRQAPGKEREFVAAVTWNSGRTNYADSVKGRFTVSRDNTRNAAYLQMSGLKDEDTAVYYCTAHRLVVGGTSVGDWRYWGQGTQVTVSS
notes: also called ABIIPMP42D4
fold improved IC50 against reference VHH 2G6 [9]: ≥ 21 fold
IC50 [10]: 44 nM
IC50 [11]: 46.8 nM
EC50 [4]: 14.2 nM
Kd [12]: 16 nM
IC50 [13]: 51 nM
koff [14]: 0.0061 s⁻¹
EC50 [5]: 0.9 nM
IC50 [15]: 46.8 nM
binding result (A-beta(1-16) peptide): binds
EC50 [6]: 0.9 nM
IC50 [16]: > 1000 nM
EC50 [7]: 14.2 nM

B7: ABII42D4-9GS-ABII42D4 (designed binder)
chain: EVQLVESGGGLVLAGGSLRLSCVHSGPTFSTDTMGWFRQAPGKEREFVAAVTWNSGRTNYADSVKGRFTVSRDNTRNAAYLQMSGLKDEDTAVYYCTAHRLVVGGTSVGDWRYWGQGTQVTVSSGGGGSGGGGEVQLVESGGGLVLAGGSLRLSCVHSGPTFSTDTMGWFRQAPGKEREFVAAVTWNSGRTNYADSVKGRFTVSRDNTRNAAYLQMSGLKDEDTAVYYCTAHRLVVGGTSVGDWRYWGQGTQVTVSS
notes: VHH dimer with two identical domains; also called bivalent ABII42D4
IC50 [13]: 16 nM
fold improved IC50 against monovalent ABII42D4 [27]: 3.2 fold
IC50 [16]: > 1000 nM
